Data from US20250340881A1, “PHARMACEUTICAL COMPOSITION FOR TREATING CANCER COMPRISING FOXM1 MUTANT OR FOXM1 SHRNA” (Industry-University Cooperation Foundation Hanyang …, priority 2022, published 2025).

System: A549 lung cancer cells expressing the FoxM1 phosphorylated point mutant protein
Assay: Migration assay of A549 cells over-expressing FoxM1 phosphorylated point mutant treated with peptides
Type: cell-based
Settings: doxycycline 3 μg/ml, 48 hours, no peptide
Method: Moreover, to evaluate the effects and efficacy of the three peptides comprising the FoxM1 non-phosphorylation point mutation on the motility of cancer cells, the cell motility was measured by a migration assay (FIG. 8C). Specifically, 5×10^4 cells of A549 lung cancer cells expressing the FoxM1 phosphorylated point mutant protein were seeded into an 8.0 μm, 24-well insert. Culture medium containing 10% serum (FBS) was added to a 24-well plate, and then the insert was placed into the plate. 0.5 ml of RPMI 1640 (10% FBS) containing 3 μg/ml of doxycycline was dispensed into the plate, and each of the three kinds of 5 μM of FoxM1 non-phosphorylated point mutant peptides was simultaneously treated. […] After 5 minutes, the plate was washed with 1×PBS five times, and the stained intensity was measured using the Odyssey infrared imaging system. […]
Specifically, 5×10^4 cells of A549 lung cancer cells expressing the FoxM1 phosphorylated point mutant protein were seeded in an 8.0 μm, 24-well insert, and the inserts were placed in a 24-well plate after medium with 10% fetal bovine serum (FBS) was dispensed on the 24-well plate. […] After 5 minutes, the plate was washed with 1×PBS five times, and the stained intensity was measured using the Odyssey infrared imaging system. […]

B1: S25E: FoxM1 phosphorylated point mutant of the S25 residue, expressed by lentivirus in A549 cells (protein, listed as Homo sapiens)
chain: MKTSPRRPLILKRRRLPLPVQNAPEETSEEEPKRSPAQQESNQAEASKEVAESNSCKFPAGIKIINHPTMPNTQVVAIPNNANIHSIITALTAKGKESGSSGPNKFILISCGGAPTQPPGLRPQTQTSYDAKRTEVTLETLGPKPAARDVNLPRPPGALCEQKRETCDGEAAGCTINNSLSNIQWLRKMSSDGLGSRSIKQEMEEKENCHLEQRQVKVEEPSRPSASWQNSVSERPPYSYMAMIQFAINSTERKRMTLKDIYTWIEDHFPYFKHIAKPGWKNSIRHNLSLHDMFVRETSANGKVSFWTIHPSANRYLTLDQVFKQQQKRPNPELRRNMTIKTELPLGARRKMKPLLPRVSSYLVPIQFPVNQSLVLQPSVKVPLPLAASLMSSELARHSKRVRIAPKVLLAEEGIAPLSSAGPGKEEKLLFGEGFSPLLPVQTIKEEEIQPGEEMPHLARPIKVESPPLEEWPSPAPSFKEESSHSWEDSSQSPTPRPKKSYSGLRSPTRCVSEMLVIQHRERRERSRSRRKQHLLPPCVDEPELLFSEGPSTSRWAAELPFPADSSDPASQLSYSQEVGGPFKTPIKETLPISSTPSKSVLPRTPESWRLTPPAKVGGLDFSPVQTSQGASDPLPDPLGLMDLSTTPLQSAPPLESPQRLLSSEPLDLISVPFGNSSPSDIDVPKPGSPEPQVSGLAANRSLTEGLVLDTMNDSLSKILLDISFPGLDEDPLGPDNINWSQFIPELQ
In the case of B1, the “stained intensity (migration) of over-expressed group compared to the control group” value is reported as 5 folds.
